Assays:
[1] = system: T1, unmodified H1.0 peptide AKPVKASKPKKAKPVKPK
T1 sequence: AKPVKASKPKKAKPVKPK

[2] = system: T2, H1.0K180me2 peptide AKPVKASKPKKAKPVK(me2)PK
T2 sequence: AKPVKASKPKKAKPVKPK

## G9A methyltransferase (recombinant, NEB M0235S)
[1]
  in vitro methylation with tritium-labeled methyl donor, autoradiography: The appearance of a band at 4 kDa shows that The G9A methyltransferase capable of methylating H1.0 peptide
  in vitro methylation, LC-MS spectral counts: share of peptides dimethylated at K180: 99.9% of all peptides
[2]
  in vitro methylation, LC-MS: further methylated product H1.0K166me1K180me2: 1.27% of the total peptide in the reaction
  in vitro methylation, LC-MS: further methylated product H1.0K174me1K180me3: 1.06% of the total peptide in the reaction
  in vitro methylation, LC-MS: further methylated product H1.0K174me3K175me3K177me1K180me2: 0.35% of the total peptide in the reaction
  in vitro methylation, LC-MS: share of peptides further methylated: only 2.64% of peptides are further methylated

## GLP methyltransferase (recombinant, Cayman Chemical 10755)
[1]
  in vitro methylation, LC-MS spectral counts: share of peptides dimethylated at K180: 96.6% of all peptides
[2]
  in vitro methylation, LC-MS: share of peptides further methylated: 1.02% of peptides are further methylated

From patent US20190322729A1
